Assay results taken from patent US20260256840A1.

How the values were obtained:
[1] = target: HIT receptor with the D111K mutation in the TCR beta constant region (human); assay: anti-TCR bead negative selection of T cells, cell count and flow cytometry (FIG. 7)
[2] = target: NY-ESO TCR with the D111K modification in the TRBC constant region (human); assay: flow cytometry of CD8+ T cells, FITC-BW242/412 against PE NY-ESO dextramer (FIG. 9)
[3] = target: unmodified NY-ESO TCR (wild-type TCR beta constant domain) (human); assay: as above
[4] = target: NY-ESO TCR with the D111K modification in the TRBC constant region (human); assay: anti-TCR negative selection of T cells, flow cytometry

% recovery of HIT+ cells after BW242/412 negative selection (cells not bound by the antibody) [1]: 57.7%
% of the NY-ESO dextramer-positive population not stained by the anti-TCR antibody [2]: 60%
% of the NY-ESO dextramer-positive population not stained by the anti-TCR antibody [3]: 0%
% recovery post purification (BW242/412 negative selection) [4]: 80%
Substance: BW242/412 anti-TCR antibody
